Molecular target: AC133-positive and CD3-positive cells (target of the printed Kd not stated)
Assay: flow cytometry on cells, MFI against antibody concentration, detected with anti-c-Myc mAb and PE anti-mouse F(ab')2; target cell line for this Kd not stated

- Kd: 6.4 nM
B1: AC133xCD3-diabody (bispecific single-chain antibody, VHAC133-G4S Linker-VLCD3-(G4S)3 Linker-VHCD3-G4S Linker-VLAC133) (bispecific antibody)
chain: QVQLQQSGAELVRPGASVKLSCKASGYTFSDFEMHWVKQTPVHGLEWIGDIDPGTGDTAYNLKFKGKATLTTDKSSSTAYMELRSLTSEDSAVYYCTLGAFVYWGQGTLVTVSGGGGSDIQMTQSPSSLSASVGDRVTITCRASQDIRNYLNWYQQKPGKAPKLLIYYTSRLESGVPSRFSGSGSGTDYTLTISSLQPEDFATYYCQQGNTLPWTFGQGTKVEIKGGGGSGGGGSGGGGSEVQLVESGGGLVQPGGSLRLSCAASGYSFTGYTMNWVRQAPGKGLEWVALINPYKGVSTYNQKFKDRFTISVDKSKNTAYLQMNSLRAEDTAVYYCARSGYYGDSDWYFDVWGQGTLVTVSSGGGGSDVVVTQTPLSLPVSFGDQVSISCRSSQSLANSYGNTYLSWYLHKPGQSPQLLIYGISNRFSGVPDRFSGSGSGTDFTLKISTIKPEDLGMYYCLQGTHQPYTFGGGTKLEIKRADAAA
